US20250327097A1, “ORGANISMS PRODUCING LESS CROTONIC ACID” (Global Bioenergies, priority 2021, published 2025)
Substitutions are numbered along the chain they refer to. Names may count otherwise.

B1: P25L-I283T-P284D-N287P-S322T-N388M-C430N-L432F-L434W-S436N-dG462 (protein)
chain: MFLKSLREQINLLKRQGDLRIINRLVDSYLEAAAIIRRSTETKAPVPLMTNIKGYPGCSIVGGLAALSSNPEYPLSRVAMSLGLSTTASAQSIVQYLIDGLKKTPYLPVEIDSNSAPCKQNILRGEDASLAHFPIPQVHQHDGNRYVNTWGVFIVESPDGQWCNWSIQRVQYLNDRQMIALVFPSQHISDIWEEWVKIGKPMPYALVQGCEPIVPYIAGLPLLERNVNEAEYIGALYGKGIEVVKCETHDLRVPASSEVVIEGYFAITREGVEGPFGEFAGYTDNEPSLQPILSITAISWQDDPIWPVVAEGKPVDEYHTCTGIGDAAAIQNVLLTANLPVSFVWVPLYSACHLMIVSINRHWRQTHPDLTSEQLTKKVGDVIHQTRMSIKLPKIVVLDDDVDPADTESLLWALATRIHPERKRYFYESNIFPWLNCYSEEERHNRKGKRVIIDALLPENHGAISSFDYAYPDDIKQRVLMHWETDFSHD
B2: I283T-P284D-N287P-S322T-N388M-C430N-L432F-L434W-S436N-H461Y-dG462-A463T (protein)
chain: B1 chain with L25P, H461Y, A463T
B3: I283T-P284D-N287P-S322T-N388M-C430N-L432F-L434W-S436N-dG462-A463S (protein)
chain: B1 chain with L25P, A463S
B4: I283T-P284D-N287P-S322T-N388M-C430N-L432F-L434W-S436N-H461A-dG462-S465V (protein)
chain: B1 chain with L25P, H461A, S465V
B5: I283T-P284D-N287P-S322T-N388M-E421V-R422F-C430N-L432F-L434W-S436N-dG462 (protein)
chain: B1 chain with L25P, E421V, R422F
B6: I283T-P284D-N287P-S322T-N388M-C430N-L432F-L434W-S436N-H461Y-dG462-S465V (protein)
chain: B1 chain with L25P, H461Y, S465V
B7: I283T-P284D-N287P-S322T-N388M-C430N-L432F-L434W-S436N-H461V-dG462-S465V (protein)
chain: B1 chain with L25P, H461V, S465V
B8: I283T-P284D-N287P-S322T-N388M-C430N-L432F-L434W-S436N-dG462-A463T-S465V (protein)
chain: B1 chain with L25P, A463T, S465V
B9: I283T-P284D-N287P-S322T-N388M-C430N-L432F-L434W-S436N-dG462-A463F (protein)
chain: B1 chain with L25P, A463F
B10: I283T-P284D-N287P-S322T-N388M-R422G-C430N-L432F-L434W-S436N-dG462 (protein)
chain: B1 chain with L25P, R422G
B11: I283T-P284D-N287P-S322T-N388M-E421V-C430N-L432F-L434W-S436N-H461T-dG462 (protein)
chain: B1 chain with L25P, E421V, H461T
B12: I283T-P284D-N287P-S322T-N388M-C430N-L432F-L434W-S436N-dG462-S465V (protein)
chain: B1 chain with L25P, S465V
B13: I283T-P284D-N287P-S322T-N388M-E421V-C430N-L432F-L434W-S436N-H461V-dG462 (protein)
chain: B1 chain with L25P, E421V, H461V
B14: I283T-P284D-N287P-S322T-N388M-C430N-L432F-L434W-S436N-H461A-dG462-S465I (protein)
chain: B1 chain with L25P, H461A, S465I
B15: I283T-P284D-N287P-S322T-N388M-R422L-C430N-L432F-L434W-S436N-dG462 (protein)
chain: B1 chain with L25P, R422L
B16: I283T-P284D-N287P-S322T-N388M-C430N-L432F-L434W-S436N-H461V-dG462-A463T (protein)
chain: B1 chain with L25P, H461V, A463T
B17: I283T-P284D-N287P-S322T-N388M-C430N-L432F-L434W-S436N-H461A-dG462 (protein)
chain: B1 chain with L25P, H461A
B18: I283T-P284D-N287P-S322T-N388M-R422F-C430N-L432F-L434W-S436N-H461T-dG462 (protein)
chain: B1 chain with L25P, R422F, H461T
B19: I283T-P284D-N287P-S322T-N388M-C430N-L432F-L434W-S436N-H461T-dG462-A463T (protein)
chain: B1 chain with L25P, H461T, A463T
B20: I283T-P284D-N287P-S322T-N388M-C430N-L432F-L434W-S436N-H461T-dG462 (protein)
chain: B1 chain with L25P, H461T
B21: N388M-K394R-C430N-L432F-L434W-S436N-H444R (protein)
chain: B1 chain with L25P, T283I, D284P, P287N, T322S, K394R, H444R
B22: I283T-P284D-N287P-S322T-N388M-C430N-L432F-L434W-S436N-H461V-dG462 (protein)
chain: B1 chain with L25P, H461V
B23: I283T-P284D-N287P-S322T-P368S-N388M-E421V-C430N-L432F-L434W-S436N-dG462 (protein)
chain: B1 chain with L25P, P368S, E421V
B24: I283T-P284D-N287P-S322T-N388M-C430N-L432F-L434W-S436N-dG462-A463I (protein)
chain: B1 chain with L25P, A463I
B25: N388M-K394R-C430N-L432F-L434W-S436N-H444V (protein)
chain: B1 chain with L25P, T283I, D284P, P287N, T322S, K394R, H444V
B26: N388M-K394R-C430N-L432F-L434W-S436N-H444T (protein)
chain: B1 chain with L25P, T283I, D284P, P287N, T322S, K394R, H444T
B27: I283T-P284D-N287P-S322T-N388M-C430N-L432F-L434W-S436N-dG462-A463T (protein)
chain: B1 chain with L25P, A463T
B28: I283T-P284D-N287P-S322T-N388M-C430N-L432F-L434W-S436N-H461A-dG462-A463T (protein)
chain: B1 chain with L25P, H461A, A463T
B29: I283T-P284D-N287P-S322T-N388M-C430N-L432F-L434W-S436N-H461Y-dG462-A463T-S465V (protein)
chain: B1 chain with L25P, H461Y, A463T, S465V
B30: I283T-P284D-N287P-S322T-N388M-R422F-C430N-L432F-L434W-S436N-dG462-A463T (protein)
chain: B1 chain with L25P, R422F, A463T
B31: I283T-P284D-N287P-S322T-N388M-C430N-L432F-L434W-S436N-H461Y-dG462 (protein)
chain: B1 chain with L25P, H461Y
B32: I283T-P284D-N287P-S322T-N388M-R422F-C430N-L432F-L434W-S436N-H461V-dG462 (protein)
chain: B1 chain with L25P, R422F, H461V
B33: I283T-P284D-N287P-S322T-N388M-C430N-L432F-L434W-S436N-H461A-dG462-A463T-S465V (protein)
chain: B1 chain with L25P, H461A, A463T, S465V
B34: I283T-P284D-N287P-S322T-N388M-E421V-C430N-L432F-L434W-S436N-dG462-A463T (protein)
chain: B1 chain with L25P, E421V, A463T
B35: I283T-P284D-N287P-S322T-N388M-C430N-L432F-L434W-S436N-H461V-dG462-A463T-S465V (protein)
chain: B1 chain with L25P, H461V, A463T, S465V

System: 3-methylcrotonic acid
Format: biochemical, Yersinia frederiksenii
Design: key: “+” representing a low increase in activity; “++++” representing a high increase in activity

Row | Molecule | Activity relative to WT
1 | B1 | ++++
2 | B2 | ++++
3 | B3 | ++++
4 | B4 | ++++
5 | B5 | ++++
6 | B6 | ++++
7 | B7 | ++++
8 | B8 | ++++
9 | B9 | ++++
10 | B10 | ++++
11 | B11 | ++++
12 | B12 | ++++
13 | B13 | ++++
14 | B14 | ++++
15 | B15 | ++++
16 | B16 | ++++
17 | B17 | ++++
18 | B18 | ++++

Row | Molecule | Activity relative to WT
19 | B19 | ++++
20 | B20 | ++++
21 | B21 | +
22 | B22 | ++++
23 | B23 | ++++
24 | B24 | ++++
25 | B25 | +
26 | B26 | +
27 | B27 | ++++
28 | B28 | ++++
29 | B29 | ++++
30 | B30 | ++++
31 | B31 | ++++
32 | B32 | ++++
33 | B33 | ++++
34 | B34 | ++++
35 | B35 | ++++
